Read-outs that look alike come from different tables or passages of the source. Bridges are numbered along the chain shown (N, C = ends). [ ]: non-standard residue; d: D form. dPhe(4-F) = N[C@H](Cc1ccc(F)cc1)C(=O)O; Nle = CCCC[C@H](N)C(=O)O
Assays:
Assay in all cases: cell-based or functional assay
[1] = biological target: T1, melanocortin receptor-1 (MC1r), native on the human HBL cell line (human, UniProt Q01726 1-317)
[2] = biological target: T2, melanocortin receptor-4 (MC4r), recombinant on HEK-293 cells (human, UniProt P32245 1-332)
[3] = biological target: T3, human melanocortin receptor-5 (MC5), on CHO-K1 cells, CEREP assay 1869 (human, UniProt P33032 1-325)
[4] = biological target: T4, melanocortin receptor-3 (MC3r), recombinant on HEK-293 cells
[5] = biological target: melanocortin receptor-5 (MC5r), assay other than CEREP
[6] = biological target: T5, melanocortin receptor-1 (MC1r), native on the mouse B16-F10 cell line (mouse, UniProt Q01727 1-315)
[7] = biological target: T1, melanocortin receptor-1 (MC1r), native …; remark: listed apart in the source
[8] = biological target: T2, melanocortin receptor-4 (MC4r), …; remark: listed apart in the source
[9] = biological target: T3, human melanocortin receptor-5 (MC5), on …; remark: listed apart in the source
[10] = biological target: T4, melanocortin receptor-3 (MC3r), …; remark: listed apart in the source
[11] = biological target: melanocortin receptor-5 (MC5r), assay other than CEREP; remark: listed apart in the source
[12] = biological target: T5, melanocortin receptor-1 (MC1r), native …; remark: listed apart in the source

T4 sequence (P41968 whole entry): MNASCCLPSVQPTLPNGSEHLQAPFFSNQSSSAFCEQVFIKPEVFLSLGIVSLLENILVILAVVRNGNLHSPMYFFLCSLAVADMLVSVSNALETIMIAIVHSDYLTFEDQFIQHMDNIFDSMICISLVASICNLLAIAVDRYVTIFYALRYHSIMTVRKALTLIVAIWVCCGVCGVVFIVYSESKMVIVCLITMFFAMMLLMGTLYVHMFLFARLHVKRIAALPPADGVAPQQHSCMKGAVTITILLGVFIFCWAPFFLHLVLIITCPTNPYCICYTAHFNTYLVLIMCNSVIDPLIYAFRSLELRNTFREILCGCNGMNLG
T5 sequence (Q01727 whole entry): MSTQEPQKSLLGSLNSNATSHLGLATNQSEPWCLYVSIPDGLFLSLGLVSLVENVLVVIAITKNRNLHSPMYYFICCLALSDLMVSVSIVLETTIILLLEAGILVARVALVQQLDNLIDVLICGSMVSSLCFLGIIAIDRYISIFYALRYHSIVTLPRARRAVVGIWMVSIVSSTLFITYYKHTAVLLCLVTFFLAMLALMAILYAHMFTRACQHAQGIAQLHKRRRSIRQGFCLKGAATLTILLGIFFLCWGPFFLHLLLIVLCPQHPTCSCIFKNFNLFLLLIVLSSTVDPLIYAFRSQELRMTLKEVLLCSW
T2 sequence (P32245 whole entry): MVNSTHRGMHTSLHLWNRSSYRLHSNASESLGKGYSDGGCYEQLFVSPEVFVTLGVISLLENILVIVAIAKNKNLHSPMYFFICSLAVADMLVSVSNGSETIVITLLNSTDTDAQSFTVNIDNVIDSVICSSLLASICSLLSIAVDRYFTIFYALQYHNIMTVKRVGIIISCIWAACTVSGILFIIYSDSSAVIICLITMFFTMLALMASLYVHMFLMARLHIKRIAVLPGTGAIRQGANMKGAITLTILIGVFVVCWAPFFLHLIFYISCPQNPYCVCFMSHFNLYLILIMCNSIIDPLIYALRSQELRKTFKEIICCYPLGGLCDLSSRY
T3 sequence (P33032 whole entry): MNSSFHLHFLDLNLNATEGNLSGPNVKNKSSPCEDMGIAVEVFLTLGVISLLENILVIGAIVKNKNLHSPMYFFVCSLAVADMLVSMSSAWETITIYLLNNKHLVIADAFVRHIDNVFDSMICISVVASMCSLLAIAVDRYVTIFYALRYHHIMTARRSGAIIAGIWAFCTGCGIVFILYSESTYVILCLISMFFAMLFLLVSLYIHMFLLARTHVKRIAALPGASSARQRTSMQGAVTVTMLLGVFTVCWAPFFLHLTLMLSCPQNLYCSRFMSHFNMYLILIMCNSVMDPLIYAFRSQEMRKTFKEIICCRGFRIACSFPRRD
Chain of melanocortin receptor-5 (MC5r), assay other than CEREP (P33032 whole entry): as above
T1 sequence (Q01726 whole entry): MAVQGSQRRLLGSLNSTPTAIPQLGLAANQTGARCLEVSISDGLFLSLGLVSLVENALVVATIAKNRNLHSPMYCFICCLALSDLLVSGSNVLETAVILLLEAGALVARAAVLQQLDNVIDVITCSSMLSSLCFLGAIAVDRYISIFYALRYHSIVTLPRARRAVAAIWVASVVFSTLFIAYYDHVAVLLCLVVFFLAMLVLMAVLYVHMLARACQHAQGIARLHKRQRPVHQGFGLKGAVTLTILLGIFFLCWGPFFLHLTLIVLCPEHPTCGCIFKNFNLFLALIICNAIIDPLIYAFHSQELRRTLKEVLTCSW

B1: Peptide No. 60, Ac-Nle-cyclo(Glu-His-D-Phe(4-F)-Arg-Trp-NH-(CH2)4-NH) (peptide)
peptide: Ac-[Nle]EH[dPhe(4-F)]RW
modifications: bridge 2-C; not fully specified (C-terminus, bridges); printed as Ac-Nle-cyclo(Glu-His-D-Phe(4-F)-Arg-Trp-NH-(CH2)4-NH)
For B1, the “EC50 (nM), cAMP accumulation” value [1] was 0.13 nM, the “Fold Peptide No. 60 More Potent Than Bremelanotide (ratio of EC50 values)” value [1] was 0.78 fold and the “EC50 (nM), cAMP accumulation” value [2] was 2 nM. The “Fold Peptide No. 60 More Potent Than Bremelanotide (ratio of EC50 values)” value [2] was 0.5 fold, the “EC50 (nM), cAMP production, HTRF, CEREP” value [3] was 0.39 nM and the “Fold Peptide No. 60 More Potent Than Bremelanotide (ratio of EC50 values, CEREP)” value [3] was over 25000 fold. For the same binder, the “EC50 (nM), cAMP accumulation” value [4] was 0.77 nM, the “Fold Peptide No. 60 More Potent Than Bremelanotide (ratio of EC50 values)” value [4] was 4 fold and the “EC50” value [5] was 0.15 nM. For the same binder, the “Fold Peptide No. 60 More Potent Than Bremelanotide (ratio of EC50 values)” value [5] was 22500 fold, the “EC50 (nM), cAMP accumulation” value [6] was 0.02 nM and the “Fold Peptide No. 60 More Potent Than Bremelanotide (ratio of EC50 values)” value [6] was 5 fold. For the same binder, the “EC50 (nM), cAMP accumulation” value [7] was 0.13 nM, the “Fold Peptide No. 60 More Potent Than α-MSH (ratio of EC50 values)” value [7] was 69 fold and the “EC50 (nM), cAMP accumulation” value [8] was 2 nM. For the same binder, the “Fold Peptide No. 60 More Potent Than α-MSH (ratio of EC50 values)” value [8] was 1.5 fold, the “EC50 (nM), cAMP production, HTRF, CEREP” value [9] was 0.39 nM and the “Fold Peptide No. 60 More Potent Than α-MSH (ratio of EC50 values, CEREP)” value [9] was 930 fold. For the same binder, the “EC50 (nM), cAMP accumulation” value [10] was 0.77 nM, the “Fold Peptide No. 60 More Potent Than α-MSH (ratio of EC50 values)” value [10] was 3.9 fold and the “EC50” value [11] was 0.15 nM. The “Fold Peptide No. 60 More Potent Than α-MSH (ratio of EC50 values)” value [11] was 686 fold, the “EC50 (nM), cAMP accumulation” value [12] was 0.02 nM and the “Fold Peptide No. 60 More Potent Than α-MSH (ratio of EC50 values)” value [12] was 11 fold.

Source: US12692291 (PALATIN TECHNOLOGIES, dated 2026)
